According to US20240294593A1 (Genentech, published 2024):

molecular target: T1, human PD-1-His (human, UniProt Q15116 25-167, limits assumed); assay: Octet
T1 construct: Antigen of the Octet assays; not shown: His tag
T1 sequence (Q15116 25-167 limits assumed): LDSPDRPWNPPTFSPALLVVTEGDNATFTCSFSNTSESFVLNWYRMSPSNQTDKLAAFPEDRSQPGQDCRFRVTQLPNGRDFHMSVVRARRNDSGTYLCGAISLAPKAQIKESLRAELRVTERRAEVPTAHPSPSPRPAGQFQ

Binder	Kd	koff	kon
H1.53_L1 (antibody, human IgG1, kappa, V domains shown, also called VH-S55E; Kabat 52aE) VH: EVQLVESGGGLVQPGGSLRLSCAASGFTFSSFGMHWVRQAPGKGLEWVSYISEGSSIIYYADSVKGRFTISRDNAKNSLYLQMNSLRAEDTAVYYCARGGRLVWSPDYWGQGTLVTVSS VL: DIVMTQSPDSLAVSLGERATINCKSSQSLLNSGNQKNYLTWYQQKPGQPPKLLIYWASTRESGVPDRFTGSGSGTDFTLTISSLQAEDVAVYYCQNDYSYPFTFGSGTKLEIKR	96 nM	0.0283 s⁻¹	295000 M⁻¹ s⁻¹
H1.44_L1 (antibody, human IgG1, kappa, V domains shown, also called VH-S54E; Kabat 52E) VH: EVQLVESGGGLVQPGGSLRLSCAASGFTFSSFGMHWVRQAPGKGLEWVSYIESGSSIIYYADSVKGRFTISRDNAKNSLYLQMNSLRAEDTAVYYCARGGRLVWSPDYWGQGTLVTVSS VL: DIVMTQSPDSLAVSLGERATINCKSSQSLLNSGNQKNYLTWYQQKPGQPPKLLIYWASTRESGVPDRFTGSGSGTDFTLTISSLQAEDVAVYYCQNDYSYPFTFGSGTKLEIKR	183 nM	0.0225 s⁻¹	123000 M⁻¹ s⁻¹
H1.54_L1 (antibody, human IgG1, kappa, V domains shown, also called VH-G56A; Kabat 53A; copies: 2 + 2) VH: EVQLVESGGGLVQPGGSLRLSCAASGFTFSSFGMHWVRQAPGKGLEWVSYISSASSIIYYADSVKGRFTISRDNAKNSLYLQMNSLRAEDTAVYYCARGGRLVWSPDYWGQGTLVTVSS VL: DIVMTQSPDSLAVSLGERATINCKSSQSLLNSGNQKNYLTWYQQKPGQPPKLLIYWASTRESGVPDRFTGSGSGTDFTLTISSLQAEDVAVYYCQNDYSYPFTFGSGTKLEIKR	34.5 nM	0.00432 s⁻¹	125000 M⁻¹ s⁻¹
H1.47_L1 (antibody, human IgG1, kappa, V domains shown, also called VH-S55Q; Kabat 52aQ) VH: EVQLVESGGGLVQPGGSLRLSCAASGFTFSSFGMHWVRQAPGKGLEWVSYISQGSSIIYYADSVKGRFTISRDNAKNSLYLQMNSLRAEDTAVYYCARGGRLVWSPDYWGQGTLVTVSS VL: DIVMTQSPDSLAVSLGERATINCKSSQSLLNSGNQKNYLTWYQQKPGQPPKLLIYWASTRESGVPDRFTGSGSGTDFTLTISSLQAEDVAVYYCQNDYSYPFTFGSGTKLEIKR	117 nM	0.0159 s⁻¹	136000 M⁻¹ s⁻¹
H1.40_L1 (antibody, human IgG1, kappa, V domains shown, also called VH-S54V; Kabat 52V; copies: 2 + 2) VH: EVQLVESGGGLVQPGGSLRLSCAASGFTFSSFGMHWVRQAPGKGLEWVSYIVSGSSIIYYADSVKGRFTISRDNAKNSLYLQMNSLRAEDTAVYYCARGGRLVWSPDYWGQGTLVTVSS VL: DIVMTQSPDSLAVSLGERATINCKSSQSLLNSGNQKNYLTWYQQKPGQPPKLLIYWASTRESGVPDRFTGSGSGTDFTLTISSLQAEDVAVYYCQNDYSYPFTFGSGTKLEIKR	231 nM	0.0293 s⁻¹	127000 M⁻¹ s⁻¹
H1.43_L1 (antibody, human IgG1, kappa, V domains shown, also called VH-S54Y; Kabat 52Y) VH: EVQLVESGGGLVQPGGSLRLSCAASGFTFSSFGMHWVRQAPGKGLEWVSYIYSGSSIIYYADSVKGRFTISRDNAKNSLYLQMNSLRAEDTAVYYCARGGRLVWSPDYWGQGTLVTVSS VL: DIVMTQSPDSLAVSLGERATINCKSSQSLLNSGNQKNYLTWYQQKPGQPPKLLIYWASTRESGVPDRFTGSGSGTDFTLTISSLQAEDVAVYYCQNDYSYPFTFGSGTKLEIKR	665 nM	0.148 s⁻¹	223000 M⁻¹ s⁻¹
H1.56_L1 (antibody, human IgG1, kappa, V domains shown, also called VH-G56T; Kabat 53T; copies: 2 + 2) VH: EVQLVESGGGLVQPGGSLRLSCAASGFTFSSFGMHWVRQAPGKGLEWVSYISSTSSIIYYADSVKGRFTISRDNAKNSLYLQMNSLRAEDTAVYYCARGGRLVWSPDYWGQGTLVTVSS VL: DIVMTQSPDSLAVSLGERATINCKSSQSLLNSGNQKNYLTWYQQKPGQPPKLLIYWASTRESGVPDRFTGSGSGTDFTLTISSLQAEDVAVYYCQNDYSYPFTFGSGTKLEIKR	31.5 nM	0.00407 s⁻¹	129000 M⁻¹ s⁻¹
H1.38_L1 (antibody, human IgG1, kappa, V domains shown, also called VH-S54Q; Kabat 52Q; copies: 2 + 2) VH: EVQLVESGGGLVQPGGSLRLSCAASGFTFSSFGMHWVRQAPGKGLEWVSYIQSGSSIIYYADSVKGRFTISRDNAKNSLYLQMNSLRAEDTAVYYCARGGRLVWSPDYWGQGTLVTVSS VL: DIVMTQSPDSLAVSLGERATINCKSSQSLLNSGNQKNYLTWYQQKPGQPPKLLIYWASTRESGVPDRFTGSGSGTDFTLTISSLQAEDVAVYYCQNDYSYPFTFGSGTKLEIKR	57.5 nM	0.00776 s⁻¹	135000 M⁻¹ s⁻¹
H1.49_L1 (antibody, human IgG1, kappa, V domains shown, also called VH-S55V; Kabat 52aV; copies: 2 + 2) VH: EVQLVESGGGLVQPGGSLRLSCAASGFTFSSFGMHWVRQAPGKGLEWVSYISVGSSIIYYADSVKGRFTISRDNAKNSLYLQMNSLRAEDTAVYYCARGGRLVWSPDYWGQGTLVTVSS VL: DIVMTQSPDSLAVSLGERATINCKSSQSLLNSGNQKNYLTWYQQKPGQPPKLLIYWASTRESGVPDRFTGSGSGTDFTLTISSLQAEDVAVYYCQNDYSYPFTFGSGTKLEIKR	92.8 nM	0.0136 s⁻¹	147000 M⁻¹ s⁻¹

More lines, now with the values ahead:

Kd	koff	kon	Binder
56 nM	0.00763 s⁻¹	136000 M⁻¹ s⁻¹	H1.37_L1 (antibody, human IgG1, kappa, V domains shown, also called VH-S54A; Kabat 52A; copies: 2 + 2) VH: EVQLVESGGGLVQPGGSLRLSCAASGFTFSSFGMHWVRQAPGKGLEWVSYIASGSSIIYYADSVKGRFTISRDNAKNSLYLQMNSLRAEDTAVYYCARGGRLVWSPDYWGQGTLVTVSS VL: DIVMTQSPDSLAVSLGERATINCKSSQSLLNSGNQKNYLTWYQQKPGQPPKLLIYWASTRESGVPDRFTGSGSGTDFTLTISSLQAEDVAVYYCQNDYSYPFTFGSGTKLEIKR
54.9 nM	0.00567 s⁻¹	103000 M⁻¹ s⁻¹	H1.51_L1 (antibody, human IgG1, kappa, V domains shown, also called VH-S55K; Kabat 52aK) VH: EVQLVESGGGLVQPGGSLRLSCAASGFTFSSFGMHWVRQAPGKGLEWVSYISKGSSIIYYADSVKGRFTISRDNAKNSLYLQMNSLRAEDTAVYYCARGGRLVWSPDYWGQGTLVTVSS VL: DIVMTQSPDSLAVSLGERATINCKSSQSLLNSGNQKNYLTWYQQKPGQPPKLLIYWASTRESGVPDRFTGSGSGTDFTLTISSLQAEDVAVYYCQNDYSYPFTFGSGTKLEIKR
20.1 nM	0.00293 s⁻¹	146000 M⁻¹ s⁻¹	H1.48_L1 (antibody, human IgG1, kappa, V domains shown, also called VH-S55G; Kabat 52aG) VH: EVQLVESGGGLVQPGGSLRLSCAASGFTFSSFGMHWVRQAPGKGLEWVSYISGGSSIIYYADSVKGRFTISRDNAKNSLYLQMNSLRAEDTAVYYCARGGRLVWSPDYWGQGTLVTVSS VL: DIVMTQSPDSLAVSLGERATINCKSSQSLLNSGNQKNYLTWYQQKPGQPPKLLIYWASTRESGVPDRFTGSGSGTDFTLTISSLQAEDVAVYYCQNDYSYPFTFGSGTKLEIKR
33.1 nM	0.00423 s⁻¹	128000 M⁻¹ s⁻¹	H1.52_L1 (antibody, human IgG1, kappa, V domains shown, also called VH-S55Y; Kabat 52aY) VH: EVQLVESGGGLVQPGGSLRLSCAASGFTFSSFGMHWVRQAPGKGLEWVSYISYGSSIIYYADSVKGRFTISRDNAKNSLYLQMNSLRAEDTAVYYCARGGRLVWSPDYWGQGTLVTVSS VL: DIVMTQSPDSLAVSLGERATINCKSSQSLLNSGNQKNYLTWYQQKPGQPPKLLIYWASTRESGVPDRFTGSGSGTDFTLTISSLQAEDVAVYYCQNDYSYPFTFGSGTKLEIKR
115 nM	0.0178 s⁻¹	154000 M⁻¹ s⁻¹	H1.39_L1 (antibody, human IgG1, kappa, V domains shown, also called VH-S54G; Kabat 52G; copies: 2 + 2) VH: EVQLVESGGGLVQPGGSLRLSCAASGFTFSSFGMHWVRQAPGKGLEWVSYIGSGSSIIYYADSVKGRFTISRDNAKNSLYLQMNSLRAEDTAVYYCARGGRLVWSPDYWGQGTLVTVSS VL: DIVMTQSPDSLAVSLGERATINCKSSQSLLNSGNQKNYLTWYQQKPGQPPKLLIYWASTRESGVPDRFTGSGSGTDFTLTISSLQAEDVAVYYCQNDYSYPFTFGSGTKLEIKR
24.2 nM	0.00287 s⁻¹	119000 M⁻¹ s⁻¹	H1.50_L1 (antibody, human IgG1, kappa, V domains shown, also called VH-S55H; Kabat 52aH; copies: 2 + 2) VH: EVQLVESGGGLVQPGGSLRLSCAASGFTFSSFGMHWVRQAPGKGLEWVSYISHGSSIIYYADSVKGRFTISRDNAKNSLYLQMNSLRAEDTAVYYCARGGRLVWSPDYWGQGTLVTVSS VL: DIVMTQSPDSLAVSLGERATINCKSSQSLLNSGNQKNYLTWYQQKPGQPPKLLIYWASTRESGVPDRFTGSGSGTDFTLTISSLQAEDVAVYYCQNDYSYPFTFGSGTKLEIKR
74.5 nM	0.0091 s⁻¹	122000 M⁻¹ s⁻¹	H1.45_L1 (antibody, human IgG1, kappa, V domains shown, also called VH-S55T; Kabat 52aT) VH: EVQLVESGGGLVQPGGSLRLSCAASGFTFSSFGMHWVRQAPGKGLEWVSYISTGSSIIYYADSVKGRFTISRDNAKNSLYLQMNSLRAEDTAVYYCARGGRLVWSPDYWGQGTLVTVSS VL: DIVMTQSPDSLAVSLGERATINCKSSQSLLNSGNQKNYLTWYQQKPGQPPKLLIYWASTRESGVPDRFTGSGSGTDFTLTISSLQAEDVAVYYCQNDYSYPFTFGSGTKLEIKR
41.9 nM	0.00529 s⁻¹	126000 M⁻¹ s⁻¹	H1.46_L1 (antibody, human IgG1, kappa, V domains shown, also called VH-S55A; Kabat 52aA) VH: EVQLVESGGGLVQPGGSLRLSCAASGFTFSSFGMHWVRQAPGKGLEWVSYISAGSSIIYYADSVKGRFTISRDNAKNSLYLQMNSLRAEDTAVYYCARGGRLVWSPDYWGQGTLVTVSS VL: DIVMTQSPDSLAVSLGERATINCKSSQSLLNSGNQKNYLTWYQQKPGQPPKLLIYWASTRESGVPDRFTGSGSGTDFTLTISSLQAEDVAVYYCQNDYSYPFTFGSGTKLEIKR
500 nM	0.0265 s⁻¹	53000 M⁻¹ s⁻¹	H1.42_L1 (antibody, human IgG1, kappa, V domains shown, also called VH-S54K; Kabat 52K) VH: EVQLVESGGGLVQPGGSLRLSCAASGFTFSSFGMHWVRQAPGKGLEWVSYIKSGSSIIYYADSVKGRFTISRDNAKNSLYLQMNSLRAEDTAVYYCARGGRLVWSPDYWGQGTLVTVSS VL: DIVMTQSPDSLAVSLGERATINCKSSQSLLNSGNQKNYLTWYQQKPGQPPKLLIYWASTRESGVPDRFTGSGSGTDFTLTISSLQAEDVAVYYCQNDYSYPFTFGSGTKLEIKR
33.9 nM	0.00457 s⁻¹	135000 M⁻¹ s⁻¹	H1.55_L1 (antibody, human IgG1, kappa, V domains shown, also called VH-G56S; Kabat 53S; copies: 2 + 2) VH: EVQLVESGGGLVQPGGSLRLSCAASGFTFSSFGMHWVRQAPGKGLEWVSYISSSSSIIYYADSVKGRFTISRDNAKNSLYLQMNSLRAEDTAVYYCARGGRLVWSPDYWGQGTLVTVSS VL: DIVMTQSPDSLAVSLGERATINCKSSQSLLNSGNQKNYLTWYQQKPGQPPKLLIYWASTRESGVPDRFTGSGSGTDFTLTISSLQAEDVAVYYCQNDYSYPFTFGSGTKLEIKR
74.6 nM	0.0104 s⁻¹	140000 M⁻¹ s⁻¹	H1.41_L1 (antibody, human IgG1, kappa, V domains shown, also called VH-S54H; Kabat 52H; copies: 2 + 2) VH: EVQLVESGGGLVQPGGSLRLSCAASGFTFSSFGMHWVRQAPGKGLEWVSYIHSGSSIIYYADSVKGRFTISRDNAKNSLYLQMNSLRAEDTAVYYCARGGRLVWSPDYWGQGTLVTVSS VL: DIVMTQSPDSLAVSLGERATINCKSSQSLLNSGNQKNYLTWYQQKPGQPPKLLIYWASTRESGVPDRFTGSGSGTDFTLTISSLQAEDVAVYYCQNDYSYPFTFGSGTKLEIKR
